Assay results from patent US20160319012A1 (Genentech, published 2016).

Molecular target: T1, hamster phospholipase B-like 2 (PLBL2) (hamster, UniProt G3I6T1 38-585, Used as two conjugates: one with biotin (Biotin-PLBL2) and one with digoxigenin (DIG-PLBL2). Conjugation sites are not stated. Natural mannose-6-phosphate glycans are not carried by the letters.)
T1 construct: Purified hamster PLBL2; also called PLB2; PLBD2
T1 sequence: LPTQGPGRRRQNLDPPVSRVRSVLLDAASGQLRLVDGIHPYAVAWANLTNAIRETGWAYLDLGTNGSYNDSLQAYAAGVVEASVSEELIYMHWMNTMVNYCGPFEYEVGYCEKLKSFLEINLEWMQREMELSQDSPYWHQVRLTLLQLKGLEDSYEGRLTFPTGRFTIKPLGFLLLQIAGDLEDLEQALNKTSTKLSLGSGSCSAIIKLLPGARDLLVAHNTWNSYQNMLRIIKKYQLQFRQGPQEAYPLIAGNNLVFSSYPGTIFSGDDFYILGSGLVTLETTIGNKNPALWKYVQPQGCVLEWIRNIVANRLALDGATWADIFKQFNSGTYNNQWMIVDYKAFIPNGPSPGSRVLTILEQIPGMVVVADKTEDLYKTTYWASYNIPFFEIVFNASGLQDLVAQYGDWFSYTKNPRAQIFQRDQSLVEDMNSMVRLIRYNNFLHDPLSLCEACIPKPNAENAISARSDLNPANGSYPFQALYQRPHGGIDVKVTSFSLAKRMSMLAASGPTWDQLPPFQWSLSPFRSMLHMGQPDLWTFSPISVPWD
Assay: bridging ELISA with Biotin-PLBL2 and DIG-PLBL2, drug tolerance experiment in serum
Procedure: The antibody bridging ELISA assay that was developed and validated to detect antibodies to hamster PLBL2 in human serum used two conjugated reagents to capture all isotypes of antibodies directed against hamster PLBL2: purified hamster PLBL2 conjugated to biotin (Biotin-PLBL2) and purified hamster PLBL2 conjugated to digoxigenin (DIG-PLBL2). Production and purification of hamster PLBL2 was carried out using standard methods known to one skilled in the art is also described in U.S. Provisional Application Nos. 61/877,503 and 61/991,228 and conjugation to biotin or DIG were carried out using standard methods known to one skilled in the art. In this semi-homogenous antibody bridging ELISA assay, 75 μL/well of conjugated solution in assay diluent (PBS/0.5% BSA/0.05% Polysorbate 20/0.05% ProClin 300, pH 7.4±0.1) containing 3 μg/mL of each Biotin-PLBL2 and DIG-PLBL2 were co-incubated overnight (16-24 hours) at ambient temperature with 75 μL/well of 1:20 diluted serum samples and controls in assay diluent in polypropylene micronic tubes (National Scientific Supply Co.; Claremont, C A). […] The plates were read at 450 nm for detection absorbance and 630 nm for reference absorbance.

B1: lebrikizumab (antibody, human IgG4 S228P, kappa, V domains shown)
VH: VTLRESGPALVKPTQTLTLTCTVSGFSLSAYSVNWIRQPPGKALEWLAMIWGDGKIVYNSALKSRLTISKDTSKNQVVLTMTNMDPVDTATYYCAGDGYYPYAMDNWGQGSLVTVSS
VL: DIVMTQSPDSLSVSLGERATINCRASKSVDSYGNSFMHWYQQKPGQPPKLLIYLASNLESGVPDRFSGSGSGTDFTLTISSLQAEDVAVYYCQQNNEDPRTFGGGTKVEIKR
notes: Humanized IgG4; also called anti-IL13 MAb; anti-IL13 monoclonal antibody
  binding result: no binding (tested: 50 µg/mL)
